This note sets out measurements from the RNAGym collection of RNA variant scans (doi:10.1093/molbev/msab373).

B1: Azoarcus group I ribozyme (parent)
chain: GUGCCUUGCGCCGGGAAACCACGCAAGGGAUGGUGUCAAAUUCGGCGAAACCUAAGCGCCCGCCCGGGCGUAUGGCAACGCCGAGCCAAGCUUCGGCGCCUGCGCCGAUGAAGGUGUAGAGACUAGACGGCACCCACCUAAGGCAAACGCUAUGGUGAAGGCAUAGUCCAGGGAGUGGCGAAAGUCACACAAACCGG

Variants of B1 are the subject of this data set. As to the kind of experiment: reverse-splicing fitness (ratio to wild type); higher = more active; in vitro selection; Mg2+ level not given. In short, it runs like this:
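An in vitro group I ribozyme library with randomized positions was T7-transcribed and gel-purified. In triplicate, 10 pmol RNA in EPPS pH 7.5 was reacted with 50 pmoles of a 30-nt RNA substrate for 1 h at 37 °C across several added MgCl2 levels (1–48 mM), then stopped with EDTA. Products were reverse transcribed from a substrate-complementary primer, PCR-amplified and sequenced (HiSeq 4000). Fitness is a variant's read proportion after selection over that before, normalised to wild type.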
For A111C A120C A145G C169G U176G, the reverse-splicing fitness came to 0.00588.

Turning to A111C A120C A145G C169G U176A, the reverse-splicing fitness was determined as 0.0201. With A111C A120C A145C C150U, the reverse-splicing fitness worked out at 0.175. The same measure for A111C A120C C150G U176G: 0.00388. With A111C A120C C150G U176A, the reverse-splicing fitness was 0.0144. Under A111C A120C C150G U176C stands 0.0288; under A111C A120C A145G C150U C169U U176G, 0.00486. The same measure for A111C A120C A145G C150U C169U U176A: 0.0283; for A111C A120C A145G C150U C169U U176C: 0.0438. Under A111C A120C C169G stands 0.00921; under A111C A120C C169U, 0.183; under A111C A120C C169A, 0.0116. In the case of A111C A120C C169U U176G, the reverse-splicing fitness came out at 0.0068.

As to A111C A120C C169U U176A, the reverse-splicing fitness turned out to be 0.031. Take A111C A120C C169U U176C: the reverse-splicing fitness was 0.0446. Under A111C A120C A145G C150U C169G U176G stands 0.00574. The same measure for A111C A120C A145G C150U C169G U176C: 0.0158; for A111C A120C A145G C150U C169G U176A: 0.0118; for A111C A120C A145G C150A C169G U176C: 0.0253. In the case of A111C A120C A145G C150A C169G U176G, the reverse-splicing fitness was found to be 0.00696. Under A111C A120C A145G C150A C169G U176A stands 0.0148; under A111C A120C C150U C169A U176C, 0.0142; under A111C A120C C150U C169A U176G, 0.00561.

A111C A120C C150U C169A U176A: the reverse-splicing fitness is 0.0172. Take A111C A120G A145G C150U C169G: the reverse-splicing fitness was 0.167. Under A111C A120G A145G C150U C169A stands 0.0989; under A111C A120G A145C C150A C169U, 0.0139; under A111C A120G A145C C150A C169A, 0.0103. On to A111C A120G A145C C150A C169G, for which the reverse-splicing fitness came out at 0.0149. Under A111C A120C A145G C150A C169U U176C stands 0.024; under A111C A120C A145G C150A C169U U176G, 0.00728; under A111C A120C A145G C150A C169U U176A, 0.0207.

On to A111C A120C A145U C150U C169A U176C, for which the reverse-splicing fitness was determined as 0.00838. Under A111C A120C A145U C150U C169A U176A stands 0.012. Under A111C A120C A145U C150U C169A U176G stands 0.00715; under A111C A120C C150G C169U, 0.02. As for A111C A120C C150G C169G, the reverse-splicing fitness came to 0.00757. A111C A120C C150G C169A: the reverse-splicing fitness was determined as 0.00914. The same measure for A111C A120G A145C U176C: 0.0361; for A111C A120G A145C U176G: 0.00548. The same measure for A111C A120G A145C U176A: 0.0323; for A111C A120C A145C C150U C169U U176G: 0.00555. Under A111C A120C A145C C150U C169U U176A stands 0.0206; under A111C A120C A145C C150U C169U U176C, 0.0237. For the variant A111C A120G A145G C150G U176C, the reverse-splicing fitness came to 0.0155. The same measure for A111C A120G A145G C150G U176G: 0.00613; for A111C A120G A145G C150G U176A: 0.00942. Regarding A111C A120G A145G C150G C169A U176G, the reverse-splicing fitness stood at 0.00703.

Turning to A111C A120G A145G C150G C169A U176A, the reverse-splicing fitness came to 0.0128.

Consider A111C A120G A145G C150G C169A U176C, for which the reverse-splicing fitness amounted to 0.0131. The same measure for A111C A120C A145U C150G C169G U176C: 0.00645; for A111C A120C A145U C150G C169G U176G: 0.00591; for A111C A120C A145U C150G C169G U176A: 0.00752. The same measure for A111C A120G A145C C150G C169G U176G: 0.00434. As to A111C A120G A145C C150G C169G U176C, the reverse-splicing fitness was 0.00609. Under A111C A120G A145C C150G C169G U176A stands 0.00954; under A111C A120G A145C C150U C169G U176G, 0.00474. The same measure for A111C A120G A145C C150U C169G U176A: 0.0253; for A111C A120G A145C C150U C169G U176C: 0.0221; for A111C A120G A145G C150A U176G: 0.0068.

For A111C A120G A145G C150A U176C, the reverse-splicing fitness is 0.0252. Regarding A111C A120G A145G C150A U176A, the reverse-splicing fitness came to 0.0132. The same measure for A111C A120G: 0.185; for A111C A120G A145C C150U: 0.0418; for A111C A120G A145C C150A: 0.0117. On to A111C A120G A145C C150G, for which the reverse-splicing fitness was found to be 0.0219. The same measure for A111C A120G A145C C169U: 0.146. With A111C A120G A145C C169G, the reverse-splicing fitness is 0.201.

A111C A120G A145C C169A: the reverse-splicing fitness was 0.0989. The same measure for A111C A120C A145C C150U C169G: 0.00649; for A111C A120C A145C C150U C169U: 0.048. On to A111C A120C A145C C150U C169A, for which the reverse-splicing fitness worked out at 0.00837. Consider A111C A120C A145U C169G, for which the reverse-splicing fitness was determined as 0.00945.

Take A111C A120C A145U C169A: the reverse-splicing fitness stood at 0.0119. With A111C A120C A145U C169U, the reverse-splicing fitness turned out to be 0.189.

As for A111C A120C A145G C150A U176C, the reverse-splicing fitness stood at 0.0663.

For A111C A120C A145G C150A U176G, the reverse-splicing fitness stood at 0.0143.

On to A111C A120C A145G C150A U176A, for which the reverse-splicing fitness turned out to be 0.0428. The same measure for A111C A120G A145G C150U C169A U176C: 0.0222. On to A111C A120G A145G C150U C169A U176G, for which the reverse-splicing fitness was determined as 0.00548. For A111C A120G A145G C150U C169A U176A, the reverse-splicing fitness worked out at 0.0192. A111C A120G A145G C150G C169A: the reverse-splicing fitness stood at 0.0166.

On to A111C A120G A145G C150G C169U, for which the reverse-splicing fitness turned out to be 0.0264. Take A111C A120G A145G C150G C169G: the reverse-splicing fitness is 0.0248.
